Experimental data taken from patent US6642368B1, “Programmed cell death and caspase-12” (The General Hospital Corporation, priority 1998, dated 2003).

Columns and labels:
pro-caspase-12 = experiment: In vitro cleavage of [35S]-labeled protein by partially purified caspase-12Δ2; format: biochemical, mouse; settings: 1 hr at 37° C., 0.1 μg enzyme
Source text: (§1) FIGS. 8A-8C Protease activity of caspase-12Δ2. […] Proteins were run on 15% gel and detected by Coomassie brilliant blue staining. Arrowheads indicate polypeptides derived from caspase-12 proteins. FIG. 8B is a diagram of processing sites on caspase-12Δ and caspase-12Δ2. […] Reaction was stopped by boiling with the addition of sample buffer for SDS-polyacrylamide gel electrophoresis. The molecular sizes in kilodaltons are indicated at the left.
(§2) ICE, casp-2 and casp-3 were cloned into a pET-15b vector (Novagen) and their expression was induced in the presence of 0.2-0.3 mM IPTG (Wang, S., et a., J. Biol. Chem. 271:20580-20587 (1996); Cryns, V. L., et al., J. Biol. Chem. 271:31277-31282 (1996)). Bacterial lysates containing the ICE-like proteases were prepared as described (Wang, S., et al., J. Biol. Chem. 271:20580-20587 (1996); Cryns, V. L., et al., J. Biol. Chem. 271:31277-31282 (1996)). [^35S]-labeled proteins were prepared by in vitro transcription and translation using a TNT coupled reticulocyte lysate system (Promega) and [^35S]methionine (Amersham). Labeled proteins were incubated at 37° C. with purified caspase-12Δ2 or at 30° C. with E. coli lysates containing the caspase family members. […] Cleavage products were analyzed by either 10- or 15% SDS-polyacrylamide gel electrophoresis. […]

[1] = test system: pro-ICE, pro-caspase-2 and pro-caspase-3; experiment: In vitro cleavage of [35S]-labeled proteins by partially purified caspase-12Δ2; format: biochemical; settings: 1 hr or 3 hr incubation
Source text: as §1, §2

[2] = test system: pro-IL-1β and poly(ADP-ribose) polymerase; experiment: Cleavage of preferred ICE and caspase-3 substrates by purified caspase-12Δ2; format: biochemical
Protocol: as §2, with “members. The reaction mixture contained 25 mM Hepes (pH 7.5) with 5 mM EDTA, 5 mM dithiothreitol, 10% sucrose, 10 μg/ml leupeptin and 250 μM phenylmethylsulfonyl fluoride. Amount of proteins used for cleavage reaction were: 0.1 μg for partially purified caspase-12Δ2, 25-70 μg for E. coli lysate.” for “members.”

B1: caspase-12Δ2: truncated His-tagged caspase-12, amino acid residues 145-419 of SEQ ID NO:2 (protein)
chain: TLKLCPRDQFCKIKTERAKEIYPVMEKEGRTRLALIICNKKFDYLFDRDNADTDILNMQELLENLGYSVVLKENLTAQEMETELMQFAGRPEHQSSDSTFLVFMSHGILEGICGVKHRNKKPDVLHDDTIFKIFNNSNCRSLRNKPKILIMQACRGRYNGTIWVSTNKGIATADTDEERVLSCKWNNSITKAHVETDFIAFKSSTPHNISWKVGKTGSLFISKLIDCFKKYCWCYHLEEIFRKVQHSFEVPGELTQMPTIERVSMTRYFYLFPGN
modifications: His tag
processing of pro-caspase-12 (48 kDa) into fragments (pro-caspase-12): can efficiently process | cleavage of pro-ICE, pro-caspase-2 and pro-caspase-3 [1]: only faint bands of cleavage products | cleavage of pro-IL-1β and poly(ADP-ribose) polymerase [2]: little activity
